Experimental findings from US20170052184A1 (published 2017) are described below.

Test [1] concerns the target T1, HCV Core1-169 (hepatitis C virus (HCV-1), UniProt P26664 1-169).
T1 sequence: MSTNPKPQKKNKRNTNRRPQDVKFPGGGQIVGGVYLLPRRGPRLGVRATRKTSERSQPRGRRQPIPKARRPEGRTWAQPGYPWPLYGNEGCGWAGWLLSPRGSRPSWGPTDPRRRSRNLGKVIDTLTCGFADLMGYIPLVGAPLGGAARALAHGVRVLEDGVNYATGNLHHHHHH
In words: SPR sandwich, capture mAb C11-3.

The target in test [2] is T1, HCV Core1-169. In words: SPR sandwich, capture mAb C11-7.
The target of test [3] is T1, HCV Core1-169. The test can be described thus: SPR sandwich, capture mAb C11-9.
The target in test [4] is T1, HCV Core1-169. The test can be described thus: SPR sandwich, capture mAb C11-14.

B1: HCV 208B-327 (antibody, V domains shown)
VH: EVQLVESGGGLVKPGGSLKLSCAASGFTFSDSYMYWVRQTPDQRLEWVATISDGGSYTFYPDSVKGRFTISRDNAQNNLYLQMSSLKSEDTAMYYCASPHAGYFGWFAYWGRGTLVTVSA
VL: DIVMTQAAFSNPVTPGTSVSISCRSSKSLLHSNGITYLYWYLQKPGQSPQLLIYQMSKIASGVPDRFRSSGSGTDFTLRISRVEAADVGVYYCAQNLELPWTFGGGTKLEIKR
For B1, the expected percent binding with HCV Core1-169 [1], in the test with HCV Core1-169 [2], with HCV Core1-169 [3] and in the test with HCV Core1-169 [4] was at most 1% in each case.

B2: HCV 208A-874 (antibody, V domains shown)
VH: QVQLQQPGAELVKPGASVKLSCKASGYTLSSYWMHWVKQRPGQGLEWIGEIHPSDSYTSYNQKFKDKATLTVDKSSSTAYMQLSSLTSEDSAVYYCARGGYYRYDEFAYWGQGTLVTVSA
VL: DIVMTQSHKFMSTSIGDRVSITCKASQNVSPAVAWYQQKPGQSPKLLIYSASSRYTGVPDRFTGSGSGTAFTFTISSVQAEDLAVYFCQQHFSTPWTFGGGTMLEIKR
Regarding B2, the expected percent binding with HCV Core1-169 [1], with HCV Core1-169 [2], in the test with HCV Core1-169 [3] and with HCV Core1-169 [4] was at most 1% each time.

B3: HCV 208B-793 (antibody, V domains shown)
VH: EVKLVESGGGLVQPGGSLKLSCAASGFTFSSYAMSWVRQTPERRLEWVTYISNGGGSTYYSDTVKGRFTFSRDNAKNTLYLQMSSLKSEDTAMYYCARHGLGRTGFASWGQGTLVTVSA
VL: DIVMTQSHKFMSTSVGDRVSITCKASQDVGTAVAWYQQKPGQSPKLLIYWASTRHTGVPDRFTGSGSGTDFTLTISNVQSEDLADYFCQQYSNYLTFGAGTKLEVKR
B3: the expected percent binding with HCV Core1-169 [1], in the test with HCV Core1-169 [2], with HCV Core1-169 [3] and with HCV Core1-169 [4] was at most 1% throughout.

B4: HCV 208B-178 (antibody, V domains shown)
VH: DVKLVESGGGLVKLGGSLKLSCAASGFTFSSYYMSWVRQTPEKRLELVAAINSNGGSTYYPDTVKGRFTISRDNAKNTLYLQMSSLKSEDTALYYCARHGGLGRRDWYFDVWGAGTTVTVSS
VL: DIVLTQSPASLAVSLGQRATISCRASESVDNYGISFMHWYQQKPGQPPKLLIYRASNLESGIPARFSGSGSRTDFTLTINPVETDDVATYYCQQSNKDPFTFGSGAKLEIKR
As to B4, the expected percent binding with HCV Core1-169 [1] was at most 1%; in the test with HCV Core1-169 [2] it was 1.7%; in the test with HCV Core1-169 [3] it was at most 1%; in the test with HCV Core1-169 [4], at most 1%.

B5: HCV 208A-210 (antibody, V domains shown)
VH: QVQLQQSGPELVKPGASMRISCKASGYTFTSYYVHWIKQRPGQGLEWIGCIYPGDVNTDYNEKFKGKATLTADKSSSTAYMQVSTLTSEDSAIYFCVLYYYGSFAYWGQGTLVTVSA
VL: EIVLTQSPAITAASLGQNVTITCRASSSVSYMHWYRQKSGTSPQLWIYEISRRASGVPARFRASGSGTSYSLTISSMEAEDAAIYYCQQWNYPLTFGAGTKLEVKR
In the case of B5, the expected percent binding was 1.2% in the test with HCV Core1-169 [1], 1.6% with HCV Core1-169 [2], at most 1% with HCV Core1-169 [3] and at most 1% with HCV Core1-169 [4].

B6: HCV 208A-126 (antibody, V domains shown)
VH: QLQQSGPVLVKPGASVMISCKTSGYTFTENAMHWVKQSHGKSLEWIGGVNPNNGDTIFNQKFKGKATLTVDKSSNTAFTELRSLPSEESTVYYCVRRGLDFFDYWGQGTSVTVSS
VL: DIVLTQSPASLAVSLGQRATISCRASQSVSTSRYSYMHWYQQKPGQPPKLLIKYASNLESGVPARFSGSGSGTDFTLNIHPVAEEDTAAYYCQHSWEFPFTFGSGTKLEIKR
With B6, the expected percent binding in the test with HCV Core1-169 [1] is 1.2%; with HCV Core1-169 [2] it was 2%; with HCV Core1-169 [3], at most 1%; with HCV Core1-169 [4], 1.3%.

B7: HCV 208B-826 (antibody, V domains shown)
VH: DVQLVESGGGLVQAGGSRKLSCAASGFPFSSFGMHWVRQAPEKGLEWVASISSRTSKIYYADNLKGRFTISRDNPKNTLFLQMTSLGSEDTAMYYCVRSVFGNSYWFFDVWGAGTTVTVSS
VL: DIVLTQSPATLSVTPGDRVSLSCRASQRIYNYLHWYQQKSHESPRLLTKYASQSISGIPSRFSGSGSGTDFILTINSVETEDFGMYFCQQSNSWPLTFGAGTKLELRR
As to B7, the expected percent binding with HCV Core1-169 [1], in the test with HCV Core1-169 [2], with HCV Core1-169 [3] and with HCV Core1-169 [4] was at most 1% throughout.

B8: HCV 208B-408 (antibody, V domains shown)
VH: EVKLVESGGGLVQPGGSLRLSCASSGFTFTDYYMSWVRQPPGKALEWLGFIRNKAYGYTTEFSASVNGRFTISRDDSQSVPYLQMNTLRAEDSATYYCARVLYYDYGGFAYWGQGTLVTVST
VL: DIQMTQSPASLSASVGETVTITCRASGNIHTYLAWYQQKQGKSPQLLVYNANTLADGVPSRFSGSGSGTQFSLKINSLQPDDFGSYYCQHFWSAPWTFGGGTQLEIKR
On to B8, for which the expected percent binding with HCV Core1-169 [1], with HCV Core1-169 [2], with HCV Core1-169 [3] and in the test with HCV Core1-169 [4] was at most 1% in each case.

B9: HCV 208A-422 (antibody, V domains shown)
VH: DVQLQESGPGLVNPSQSLSLTCSVTGYSITSGYYWIWIQQSPGNKLEWMGYIKYDGGNNYSPSLKNRISIARDTSKNQCFLKLNSVTIEDTATYYCTRGSDSFDYWGQGTTLTVSS
VL: DIVLTQSPASLAVSLGQRAIISCKASQSVSFAGTNLMHWYQQKPGQQPKLLIYRASNLETGVPTRFSGSGSRTDFTLNIHPVEEDDAATYYCQQSREYYTFGGGTKLEIKR
B9: the expected percent binding in the test with HCV Core1-169 [1], with HCV Core1-169 [2], in the test with HCV Core1-169 [3] and in the test with HCV Core1-169 [4] was at most 1% throughout.

B10: HCV 208A-442 (antibody, V domains shown)
VH: DVQLQESGPGLVNPSQSLSLTCSVTGYSITSGYYWIWIRQFPGNKLEWMGYIKYDGGNNYSPSLKNRISIARDTSKNQFFLKLNSVTIEDTATYYCTRGSDSFDYWGQGTTLTVSS
VL: DIVLTQSPASLAVSLGQRAIISCKASQSVSFAGTNLMHWYQQKPGQQPKLLIYRASNLETGVPTRFSGSGSRTDFTLNIHPVEEDDAATYYCQQSREYYTFGGGTKLEIKR
B10: the expected percent binding with HCV Core1-169 [1] is at most 1%; in the test with HCV Core1-169 [2], 1.6%; in the test with HCV Core1-169 [3], at most 1%; in the test with HCV Core1-169 [4], at most 1%.

B11: HCV 208B-517 (antibody, V domains shown)
VH: QVQLKQSGPGLVQPSQSLSITCTVSGFSLITHGVHWVRQSPGKGLEWLGVIWSGGSTDYNAAFISRLSISKDTSKSQVFLKMSSLQADDTAIYYCARNGGATAFDYWGQGTTLTVSS
VL: DIVMTQSPATLSVTPGDRVSLSCRASQSISDYLHWYQQKSHESPRLLIKYASQSISGIPSRFRGSGSGSHFTLSINSVEPEDVGVYYCQNGHSFPWTFGGGTKLEIKR
For the molecule B11, the expected percent binding with HCV Core1-169 [1], in the test with HCV Core1-169 [2], with HCV Core1-169 [3] and in the test with HCV Core1-169 [4] was at most 1% throughout.

B12: HCV 208B-822 (antibody, V domains shown)
VH: QVQLKQSGPGLVQPSQSLSITCTVSGFSLITYGVHWVRQSPGKGLEWLGVIWGGGSTGYNAAFVSRLNITKDNSKSQVFFKMNSLQPDDTAIYYCARNGGATVFDYWGQGTTLTVSS
VL: DIVMTQSPATLSVTPGDRVSLSCRASQTISDYLHWYQQKSHESPRLLIKYASQSISGIPSRFSGSGSGSHFTLSINSVEPEDVGVYYCQNGHSFPWTFGGGTKLEIKR
Regarding B12, the expected percent binding with HCV Core1-169 [1], in the test with HCV Core1-169 [2], with HCV Core1-169 [3] and in the test with HCV Core1-169 [4] was at most 1% throughout.

B13: HCV 208B-911 (antibody, V domains shown)
VH: QVHLQQPGAELVRPGVSVKLSCKASGYTFTTYSINWMKQRPGQGLEWIGNIYPSTSHTNYNQKFRDKATMTVDKSSSTAYMQLSSPTSEDSAVYYCTINAYSMDYWGQGTSVTVSS
VL: QIVLTQSPEIMSASPGEKVTITCSASSSVSFMYWFQQKPGTSPKLWIYITSNLASGVPTRFSGSGSGTSYSLTISRMEAEDAATYYCQQRSSFPYTFGGGTKLEMKR
In the case of B13, the expected percent binding in the test with HCV Core1-169 [1], with HCV Core1-169 [2], with HCV Core1-169 [3] and in the test with HCV Core1-169 [4] was at most 1% each time.

B14: HCV 208B-515 (antibody, V domains shown)
VH: QVQLQQPGAELVKPGASLKLSCRASGYTFTSYWIHWVKQRPGQGLEWIGEIDPSDSYTNYNQKFKGKATLTVDKSSRAAYMQLSSLTSEDSAVYYCARHYYGVFDSWGQGTKLTVSS
VL: QIVFTQYPAIMSASLGERVTMTCTASSSVTSSYLHWFQQKPGSSPKLWIYSTSNPGSGVPARFSGRGSGTSYSLSISSMEAEDAATYYCLQFHRSPWTFGGGTKLEIRR
B14: the expected percent binding in the test with HCV Core1-169 [1], with HCV Core1-169 [2], with HCV Core1-169 [3] and with HCV Core1-169 [4] was at most 1% each time.

B15: HCV 208A-692 (antibody, V domains shown)
VH: QGQMQQSGAELAKPGASVKLSCKTSGFTFSSSYISWLKQKPGQSLEWIAWIFAGTGNTNYNQKFTDKAQLTVDTSSSTAYMQLSSLTTEDSAIYYCAISGTGFTYWGQGTLVTVSA
VL: EVLMTQSPLSLPVSLGDQASISCRSSQSLEHSNGNTYLEWFLQRPGQPPKLLIYKVSSRFSGVPDRFSGSGSGTDFTLKISRVEAEDLGVYYCFQGSHVPFTFGSGTKLAIKR
As for B15, the expected percent binding with HCV Core1-169 [1], in the test with HCV Core1-169 [2], in the test with HCV Core1-169 [3] and with HCV Core1-169 [4] was at most 1% throughout.
